Measured values: US20040092720A1 (US Dept. of Health and Human Services, published 2004)

Legend:
recombinant human IL-6 [1] = target: T1, recombinant human IL-6 (human, UniProt P05231 30-212, labeled with radioactive iodine); test: radioiodinated IL-6 on peptide array; experiment D11-D57
T1 construct: Labeled probe in solution, added to wells that carry the synthetic peptides; also called IL-6 ligand; Interleukin-6
Description: (§1) Synthetic peptide arrays were constructed in 96-well microtiter plates in accordance with the method set forth in WO 91/02714 (Saxinger), and used to test the binding of recombinant human IL-6 that had been labeled with radioactive iodine (radiolabeling by standard methods). After incubating the radiolabeled IL-6 ligand in a well with each synthetic peptide, a washing step was performed to remove unbound label, and the relative level of radioactivity remaining in each well of the plate was evaluated to determine the relative affinity of each peptide for IL-6 ligand.

recombinant human IL-6 [2] = target: T1, recombinant human IL-6; test: radioiodinated IL-6 on peptide array; experiment D1-D10
Description: as §1

recombinant human IL-6 [3] = target: T1, recombinant human IL-6; test: radioiodinated IL-6 on peptide array
Target sequence in this assay (P05231 30-212 limits assumed): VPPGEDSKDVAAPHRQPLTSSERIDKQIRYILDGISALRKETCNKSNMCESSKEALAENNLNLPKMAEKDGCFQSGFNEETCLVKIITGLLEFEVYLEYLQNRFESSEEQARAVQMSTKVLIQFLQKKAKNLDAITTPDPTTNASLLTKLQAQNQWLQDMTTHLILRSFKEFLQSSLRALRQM

| Binder | Counts/minute bound (recombinant human IL-6 [1]) [counts/minute] | Counts/minute bound (recombinant human IL-6 [2]) [counts/minute] | other results |
| --- | --- | --- | --- |
| IVLRFKKT [Peptide D40] | 4450 | – | – |
| AAGSHPSRWAGMGRRL [Peptide A6] | – | – | Counts/minute bound (counts/minute) (recombinant human IL-6 [3]): 1750 |
| LTCNILTFGQLEQNVYGITIISGL [Peptide E11] | – | – | Counts/minute bound (counts/minute) (recombinant human IL-6 [3]): 1820 |
| PRSTPSLTTKAVLL [Peptide B8] | – | – | Counts/minute bound (counts/minute) (recombinant human IL-6 [3]): 1850 |
| ALKEGKTSMHPPYSLGQLVPE [Peptide D10] | – | 4970 | – |
| CIAIVLRFKKT [Peptide D37] | 8350 | – | – |
| SDKAPCITDWQQEDGTVHRTYLRG [Peptide E47] | – | – | Counts/minute bound (counts/minute) (recombinant human IL-6 [3]): 2080 |
| VQDSSSVPLPTFLVAGGSLAF [Peptide D2] | – | 4520 | – |
| AIVLRFKKT [Peptide D39] | 4880 | – | – |
| TLLCIAIVLRFKKT [Peptide D34] | 12400 | – | – |
| GTLLCIAIVLRFKKT [Peptide D33] | 15700 | – | – |
| GGSLAFGTLLCIAIVLRFKKT (also called D11; D27) [Peptide D5] | – | 159000 | – |
| FGTLLCIAIVLRFKKTWKLRA [Peptide D6] | – | 144000 | – |

Now from value to binder, other results behind:

| Counts/minute bound (recombinant human IL-6 [1]) [counts/minute] | Counts/minute bound (recombinant human IL-6 [2]) [counts/minute] | Binder | other results |
| --- | --- | --- | --- |
| – | 19800 | SVPLPTFLVAGGSLAFGTLLC [Peptide D3] | – |
| 2550 | – | VLRFKKT (also called VLRFKKT) [Peptide D41] | – |
| – | 32000 | TFLVAGGSLAFGTLLCIAIVL [Peptide D4] | – |
| – | 20400 | LRFKKTWKLRALKEGKTSMHP [Peptide D8] | – |
| 12400 | – | LCIAIVLRFKKT [Peptide D36] | – |
| – | 52500 | CIAIVLRFKKTWKLRALKEGK [Peptide D7] | – |
| 15500 | – | LLCIAIVLRFKKT [Peptide D35] | – |
| 6800 | – | IAIVLRFKKT [Peptide D38] | – |
| – | 5530 | TWKLRALKEGKTSMHPPYSLG [Peptide D9] | – |
| – | 4000 | ATSLPVQDSSSVPLPTFLVAG [Peptide D1] | – |
